According to publication PMC7806720, “Restoration of the reduced CLSP activity alleviates memory impairment in Alzheimer disease” (Translational Psychiatry, 2021):

What was measured:
[1] = molecular target: recombinant apolipoprotein E4 (UniProt P02649); experiment: plate binding assay with HiBiT luminescence (Nano-Glo HiBiT Extracellular Detection System); ApoE4 or adiponectin coated on 96-well plates (20 pM in 50 mM carbonate buffer pH 9.6, overnight 4 °C), blocked with 1% skim milk in PBS; CLSP-HiBiT in PBS added, overnight 4 °C; washed with PBS with 0.1% NP-40; in duplicate
[2] = molecular target: T1, recombinant adiponectin (UniProt Q15848 19-244); experiment: as above; details: both partners purified
T1 construct: adiponectin; also called ADN; source: recombinant
T1 sequence (looked up): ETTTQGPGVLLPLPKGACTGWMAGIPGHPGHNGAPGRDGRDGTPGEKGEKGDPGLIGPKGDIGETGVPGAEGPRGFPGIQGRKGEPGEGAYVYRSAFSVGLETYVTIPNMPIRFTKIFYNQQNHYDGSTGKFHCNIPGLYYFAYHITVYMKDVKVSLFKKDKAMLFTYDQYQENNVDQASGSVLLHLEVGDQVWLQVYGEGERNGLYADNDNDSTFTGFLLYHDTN

- Kd [1]: 8.8 pM
- Kd [2]: 7.8 pM
B1: CLSP-HiBiT (natural protein, human, UniProt Q9NZT1 1-146, looked up)
chain: MAGELTPEEEAQYKKAFSAVDTDGNGTINAQELGAALKATGKNLSEAQLRKLISEVDSDGDGEISFQEFLTAAKKARAGLEDLQVAFRAFDQDGDGHITVDELRRAMAGLGQPLPQEELDAMIREADVDQDGRVNYEEFARMLAQE
notes: calmodulin-like skin protein (CLSP); also called recombinant CLSP-HiBiT; source: recombinant
